Reference: the supplement of paper PMC7877785
± gives the uncertainty stated by the source.

Assay: self-splicing fitness, log relative to wild type (ln ratio); higher = more splicing; Tetrahymena group I intron in knt gene, E. coli kanamycin selection, DiMSum; sequences stand for … in CUCUCU…GGAGGGAAAAGUUAUCAGGCAUGCACCUGGUAGCUAGUCUUUAAACCAAUAGAUUGCAUCGGUUUAAAAGGCAAGACCGUCAAAUUGCGGGAAAGGGGUCAACAGCCGUUCAGUACCAAGUCUCAGGGGAAACUUUGAGAUGGCCUUGCAAAGGGUAUGGUAAUAAGCUGACGGACAUGGUCCUAACCACGCAGCCAAGUCCUAAGUCAACAGAUCUUCUGUUGAUAUGGAUGCAGUUCACAGACUAAAUGUCGGUCGGGGAAGAUGUAUUCUUCUCAUAAGAUAUAGUCGGACCUCUCCUUAAUGGGAGCUAGCGGAUGAAGUGAUGCAACACUGGAGCCGCUGGGAACUAAUUUGUAUGCGAAAGUAUAUUGAUUAGUUUUGGAGUACUCGUGGUCG
Procedure, shortened: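 Colonies from six replicate transformations of E. coli BL21(DE3) were pooled and amplicon-sequenced on an Illumina HiSeq 2500. The library placed an intron with all eight P1ex-region nucleotides randomised inside the knt kanamycin-resistance gene on pET-22b(+), and cells grew overnight at 37°C or 30°C on LB agar with or without 25 μg/mL kanamycin (plus 100 μg/mL carbenicillin, 50 μM IPTG, 0.2% rhamnose). Fitness is the DiMSum error-weighted combination of wild-type-normalised replicate fold changes, kanamycin versus none.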

Sequence	self-splicing fitness (ln) (30 °C)	self-splicing fitness (ln) (37 °C)
CACAAGCAAUAUUACGUUUC	-3.53 ± 0.19	-1.8 ± 0.17
CACCAGCAAUAUUACGAACC	-3.66 ± 0.28	-0.707 ± 0.25
CACCAGCAAUAUUACGAAGU	-3.79 ± 0.16	-1.46 ± 0.11
CACCAGCAAUAUUACGAGGA	-2.74 ± 0.14	-1.91 ± 0.13
CACCAGCAAUAUUACGAUUG	-0.914 ± 0.046	-0.088 ± 0.072
CACCAGCAAUAUUACGCAGG	-3.09 ± 0.1	-1.64 ± 0.1
CACCAGCAAUAUUACGCCAA	-2.95 ± 0.28	-3.23 ± 0.3
CACCAGCAAUAUUACGCCCC	-3.28 ± 0.38	
CACCAGCAAUAUUACGCCUC	-3.14 ± 0.23	-1.9 ± 0.2
CACCAGCAAUAUUACGCGCC	-2.68 ± 0.17	-2.4 ± 0.2
CACCAGCAAUAUUACGCUUU	-3.8 ± 0.14	-1.94 ± 0.093
CACCAGCAAUAUUACGGACC	-2.62 ± 0.21	-1.72 ± 0.21
CACCAGCAAUAUUACGGCAA	-1.68 ± 0.099	-0.956 ± 0.1
CACCAGCAAUAUUACGGCGG	-0.993 ± 0.065	-0.567 ± 0.079
CACCAGCAAUAUUACGGGAA	-1.05 ± 0.059	-1.07 ± 0.075
CACCAGCAAUAUUACGUAAA	-3.49 ± 0.15	-1.6 ± 0.11
CACCAGCAAUAUUACGUAGA	-1.46 ± 0.052	-0.916 ± 0.064
CACCAGCAAUAUUACGUCGG	-1.36 ± 0.059	-0.518 ± 0.072
CACCAGCAAUAUUACGUCUA	-2.84 ± 0.091	-1.79 ± 0.091
CACCAGCAAUAUUACGUCUG	-1.55 ± 0.056	-0.504 ± 0.07
CACCAGCAAUAUUACGUGAG	-3.8 ± 0.16	-2.26 ± 0.14
CACCAGCAAUAUUACGUGGA	-3.55 ± 0.12	-2.12 ± 0.09
CACGAGCAAUAUUACGAACG	-0.211 ± 0.12	0.033 ± 0.14
CACGAGCAAUAUUACGAGUC		-1.63 ± 0.29

Sequence	self-splicing fitness (ln) (30 °C)	self-splicing fitness (ln) (37 °C)
CACGAGCAAUAUUACGAUCG	-1.14 ± 0.077	-0.291 ± 0.083
CACGAGCAAUAUUACGCCCA	-1.81 ± 0.4	-1.72 ± 0.28
CACGAGCAAUAUUACGCCGU	-3 ± 0.21	-2.26 ± 0.18
CACGAGCAAUAUUACGCGAU	-3.23 ± 0.21	-2.51 ± 0.41
CACGAGCAAUAUUACGCGCU	-4.22 ± 0.21	-2.01 ± 0.19
CACGAGCAAUAUUACGCUAU	-2.42 ± 0.21	-2.56 ± 0.28
CACGAGCAAUAUUACGCUGA	-3.57 ± 0.37	-2.02 ± 0.3
CACGAGCAAUAUUACGCUGG	-3.66 ± 0.16	-2.32 ± 0.16
CACGAGCAAUAUUACGCUUU	-3.71 ± 0.22	-2.89 ± 0.2
CACGAGCAAUAUUACGGGCG	-0.98 ± 0.11	-1.14 ± 0.15
CACGAGCAAUAUUACGGGCU	-4.17 ± 0.22	-3.5 ± 0.46
CACGAGCAAUAUUACGGUCA	-4.22 ± 0.39	-1.54 ± 0.16
CACGAGCAAUAUUACGUAGC	-2.94 ± 0.24	-3.31 ± 0.3
CACGAGCAAUAUUACGUAUC	-2.94 ± 0.38	-2.81 ± 0.36
CACGAGCAAUAUUACGUAUU	-4.05 ± 0.17	-2.48 ± 0.13
CACGAGCAAUAUUACGUCAC	-3.41 ± 0.2	-3.18 ± 0.37
CACGAGCAAUAUUACGUGGA	-3.08 ± 0.17	-2.2 ± 0.17
CACGAGCAAUAUUACGUGGC	-4.09 ± 0.37	-2.13 ± 0.21
CACUAGCAAUAUUACGACCA	-1.18 ± 0.14	-1.69 ± 0.21
CACUAGCAAUAUUACGAGCG	-0.458 ± 0.083	0.257 ± 0.086
CACUAGCAAUAUUACGAUCA	-2.46 ± 0.17	-1.22 ± 0.16
CACUAGCAAUAUUACGAUCU	-3.56 ± 0.19	-2.18 ± 0.18
CACUAGCAAUAUUACGCACC	-2.29 ± 0.18	-0.458 ± 0.19
CACUAGCAAUAUUACGCGAU	-2.63 ± 0.23	-2.12 ± 0.28

Sequence	self-splicing fitness (ln) (30 °C)	self-splicing fitness (ln) (37 °C)
CACUAGCAAUAUUACGCUAC		-2.31 ± 0.25
CACUAGCAAUAUUACGGCGC	-2.98 ± 0.15	-1.11 ± 0.15
CACUAGCAAUAUUACGGCGU	-1.8 ± 0.12	-0.74 ± 0.11
CACUAGCAAUAUUACGGGAU	-4.27 ± 0.21	-2.58 ± 0.15
CACUAGCAAUAUUACGGUAC	-3.09 ± 0.2	-2.87 ± 0.19
CACUAGCAAUAUUACGGUAU	-3.41 ± 0.23	-0.916 ± 0.13
CACUAGCAAUAUUACGGUGU	-3.65 ± 0.15	-2.95 ± 0.21
CACUAGCAAUAUUACGUAUC	-3.43 ± 0.25	-2.27 ± 0.19
CACUAGCAAUAUUACGUCAC	-4.12 ± 0.29	-2.01 ± 0.21
CACUAGCAAUAUUACGUGAA	-3.83 ± 0.15	-3.05 ± 0.18
CACUAGCAAUAUUACGUGAC	-2.12 ± 0.14	-2.36 ± 0.19
CACUAGCAAUAUUACGUGAG	-3.33 ± 0.14	-2.91 ± 0.23
CACUAGCAAUAUUACGUUCA	-2.34 ± 0.17	-2.49 ± 0.2
CAGAAGCAAUAUUACGAACG	-0.0252 ± 0.12	0.182 ± 0.16
CAGAAGCAAUAUUACGAUAA	-2.32 ± 0.17	-2.02 ± 0.26
CAGAAGCAAUAUUACGAUCU	-1.88 ± 0.12	-0.995 ± 0.1
CAGAAGCAAUAUUACGAUUA	-2.93 ± 0.17	-1.51 ± 0.12
CAGAAGCAAUAUUACGCAUC	-4.43 ± 0.37	-2.37 ± 0.14
CAGAAGCAAUAUUACGCAUU	-4.37 ± 0.27	-2.92 ± 0.2
CAGAAGCAAUAUUACGCCGG	-0.314 ± 0.13	-0.619 ± 0.17
CAGAAGCAAUAUUACGCGAU	-4.46 ± 0.32	-2.59 ± 0.21
CAGAAGCAAUAUUACGCGCU	-2.62 ± 0.17	-1.92 ± 0.18
CAGAAGCAAUAUUACGCUGA	-2.87 ± 0.18	-1.98 ± 0.15
CAGAAGCAAUAUUACGCUUU	-2.99 ± 0.17	-3.59 ± 0.26

Sequence	self-splicing fitness (ln) (30 °C)	self-splicing fitness (ln) (37 °C)
CAGAAGCAAUAUUACGGACU	-2.88 ± 0.27	-0.24 ± 0.31
CAGAAGCAAUAUUACGGCAG	-0.0496 ± 0.063	0.33 ± 0.083
CAGAAGCAAUAUUACGGCGU	-2.01 ± 0.18	-1.18 ± 0.18
CAGAAGCAAUAUUACGGCUC	-2.64 ± 0.28	-0.31 ± 0.21
CAGAAGCAAUAUUACGGUGU	-3.05 ± 0.12	-2.22 ± 0.14
CAGAAGCAAUAUUACGUCGA	-2.1 ± 0.13	-0.369 ± 0.1
CAGAAGCAAUAUUACGUGAG	-1.05 ± 0.064	-0.806 ± 0.076
CAGCAGCAAUAUUACGACCG	-0.0535 ± 0.096	0.48 ± 0.12
CAGCAGCAAUAUUACGACUG	-3.64 ± 0.24	-2.76 ± 0.33
CAGCAGCAAUAUUACGAGGC	-3.04 ± 0.17	-2.92 ± 0.2
CAGCAGCAAUAUUACGCAAA	-3.14 ± 0.34	-1.77 ± 0.23
CAGCAGCAAUAUUACGCUCA	-0.65 ± 0.085	-0.0891 ± 0.11
CAGCAGCAAUAUUACGCUGG	-2.69 ± 0.15	-2.43 ± 0.17
CAGCAGCAAUAUUACGGAAA	-3.12 ± 0.14	-2.19 ± 0.16
CAGCAGCAAUAUUACGGACU	-2.43 ± 0.21	-1.41 ± 0.13
CAGCAGCAAUAUUACGGCGA	-0.356 ± 0.11	-0.114 ± 0.12
CAGCAGCAAUAUUACGGUAA	-1.97 ± 0.12	-1.41 ± 0.12
CAGCAGCAAUAUUACGUAGU	-3.03 ± 0.12	-2.56 ± 0.13
CAGCAGCAAUAUUACGUAUU	-3.51 ± 0.25	-2.23 ± 0.22
CAGCAGCAAUAUUACGUGGA	-3.09 ± 0.13	-1.84 ± 0.12
CAGGAGCAAUAUUACGAAGG	-1.43 ± 0.13	-0.955 ± 0.18
CAGGAGCAAUAUUACGAAUA	-3.47 ± 0.29	-1.49 ± 0.24
CAGGAGCAAUAUUACGACAU	-3.768 ± 0.031	-2.94 ± 0.046
CAGGAGCAAUAUUACGACGG	-1.44 ± 0.054	-0.588 ± 0.053
